The target of data set [1] is GST-CrCEP19 (Chlamydomonas reinhardtii). The experiment in a line: pull-down.
The target of the next data set is GST-CEP19 (human) (UniProt Q96LK0). The experiment in a line: pull-down.
Data set [2] concerns the molecule itself.

GST-CEP19 (human), sequence (Q96LK0 whole entry): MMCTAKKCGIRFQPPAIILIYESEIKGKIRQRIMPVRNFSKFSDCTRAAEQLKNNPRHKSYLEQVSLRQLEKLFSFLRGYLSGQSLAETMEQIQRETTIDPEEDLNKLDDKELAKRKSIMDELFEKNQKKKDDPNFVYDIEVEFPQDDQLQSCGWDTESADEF

With “MYC-CrRabl2 (in vitro translated) (natural protein)”, in data set [1], the fold enhancement of binding by GTP addition was determined as 5 fold.

As for “MYC-RABL2B, full length (in vitro translated) (from UniProt Q9UNT1 1-228) (natural protein)”, the fold enhancement of binding by GTP addition in the data set with GST-CEP19 (human) worked out at 5 fold.

B1: untagged human RABL2B (natural protein, UniProt Q9UNT1-2 1-229, looked up)
chain: MAEDKTKPSELDQGKYDADDNVKIICLGDSAVGKSKLMERFLMDGFQPQQLSTYALTLYKHTATVDGRTILVDFWDTAGQERFQSMHASYYHKAHACIMVFDVQRKVTYRNLSTWYTELREFRPEIPCIVVANKIDADINVTQKSFNFAKKFSLPLYFVSAADGTNVVKLFNDAIRLAVSYKQNSQDFMDEIFQELENFSLEQEEEDVPDQEQSSSIETPSEEAASPHS
As to B1, the stoichiometry N (commonly the number of molecules, sites or subunits per partner or assembly) in data set [2] was 4.

The values are drawn from article PMC5556974 (Developmental cell, 2017).
